Measured values from US20240018189A1 (PROTAGONIST THERAPEUTICS, published 2024).
Starred links: 1 amine or outer side, 2 acyl side, 3 side chain; linkers in the order of their positions; H or OH if unused. Positions of bridges follow the written chain, without caps; N, C: chain ends. Non-standard residues stand in square brackets, D forms with d. Groups on a side chain read outwards from the residue. Chains are numbered I, II in the order given. No end group written: not given here. *: point of attachment. PEG12 = NCCOCCOCCOCCOCCOCCOCCOCCOCCOCCOCCOCCOCCC(=O)O; Pro(4Amino) = proline with a 4-amino group; Dip = N[C@H](C(=O)O)C(c1ccccc1)c1ccccc1; γGlu = O=C(O)[C@H](CCC(=O)[*:2])N[*:1]; Arg(Dimethyl) = dimethyl-arginine; Palmitoyl = CCCCCCCCCCCCCCCC(=O)*; 2Pal = N[C@@H](Cc1ccccn1)C(=O)O; β3hF = N[C@H](CC(=O)O)Cc1ccccc1; Cit = NC(=O)NCCC[C@H](N)C(=O)O; NMeL = CN[C@@H](CC(C)C)C(=O)O; Spiral_Pip = not defined here; Isovaleryl = CC(C)CC(=O)*; Npc = nipecotic acid; Ahx = NCCCCCC(=O)O; βAla = NCCC(=O)O; Sar = CNCC(=O)O

T1: human ferroportin (SLC40A1) fused in frame with GFP (human) (UniProt Q9NP59)
T1 sequence (looked up): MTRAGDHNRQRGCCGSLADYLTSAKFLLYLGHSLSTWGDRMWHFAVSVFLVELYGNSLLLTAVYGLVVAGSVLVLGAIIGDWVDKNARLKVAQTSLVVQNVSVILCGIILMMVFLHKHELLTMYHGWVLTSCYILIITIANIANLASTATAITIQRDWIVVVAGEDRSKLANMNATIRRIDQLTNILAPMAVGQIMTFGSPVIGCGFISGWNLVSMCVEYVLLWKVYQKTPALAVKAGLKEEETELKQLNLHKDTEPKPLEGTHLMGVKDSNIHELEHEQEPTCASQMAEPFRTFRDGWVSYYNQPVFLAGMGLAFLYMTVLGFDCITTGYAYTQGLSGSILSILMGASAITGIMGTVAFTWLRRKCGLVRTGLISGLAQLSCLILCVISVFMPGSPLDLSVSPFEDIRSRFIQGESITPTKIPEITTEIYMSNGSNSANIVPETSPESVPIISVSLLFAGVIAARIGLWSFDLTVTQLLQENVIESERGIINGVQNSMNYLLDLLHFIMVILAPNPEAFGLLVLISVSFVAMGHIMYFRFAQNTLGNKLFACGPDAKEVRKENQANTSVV

B1: Compd. ID 42 (peptide)
peptide: DTHXPCIKXKKC
modifications: N-term isovaleric acid; 4 Dpa; 8 (D)Lys; 9 bhPhe; 10 Lys(1Peg2_1Peg2_IsoGlu_C18_Diacid); 11 (D)Lys; C-term NH2
B2: Compd. ID 41 (peptide)
peptide: DTHXPCIKXKKC
modifications: N-term isovaleric acid; 4 Dpa; 8 (D)Lys; 9 bhPhe; 10 Lys(2Peg11′_Peg11_Palm); 11 (D)Lys; C-term NH2
B3: Compd. ID 40 (peptide)
peptide: DTHXPCIKXKKC
modifications: N-term isovaleric acid; 4 Dpa; 8 (D)Lys; 9 bhPhe; 10 Lys(Ahx_Ahx_Ahx_Palm); 11 (D)Lys; C-term NH2
B4: Seq. No. 317 (peptide)
peptide 1: Isovaleryl-DTHFPCIK([γGlu-Palmitoyl])FEPR
peptide 2: SKGCK-NH2
modifications: disulfide I:6-II:4
B5: Compd. ID 5 (peptide)
peptide: DTHXPCIKXKC
modifications: N-term isovaleric acid; 4 Dpa; 8 Lys[Ahx-isoGlu-Palm]; 9 bhPhe; 10 (D)Lys; C-term NH2
B6: Compd. ID 38 (peptide)
peptide: DTHXPCIKXKKC
modifications: N-term isovaleric acid; 4 Dpa; 8 (D)Lys; 9 bhPhe; 10 Lys(Lys[Peg11_Palm]2); 11 (D)Lys; C-term NH2
B7: Compd. ID 253 (peptide)
peptide: DTHXPCIKXKKC
modifications: N-term isovaleric acid; 4 Dpa; 8 (D)Lys(PEG12_OMe); 9 bhPhe; 10 Lys(1PEG2_1PEG2_IsoGlu_C18_Diacid); 11 (D)Lys(PEG12_OMe); C-term NH2
B8: Compd. ID 26 (peptide)
peptide: DTHXPCIKXKXC
modifications: N-term isovaleric acid; 4 Dpa; 8 (D)Lys; 9 bhPhe; 10 Lys(Ahx-Palm); 11 Cav; C-term NH2
B9: Compd. ID 43 (peptide)
peptide: DTHXPCIKXKKC
modifications: N-term isovaleric acid; 4 Dpa; 8 (D)Lys; 9 bhPhe; 10 Lys(1Peg2_1Peg2_Ahx_C18_Diacid); 11 (D)Lys; C-term NH2
B10: Compd. ID 37 (peptide)
peptide: DTHXPCIKXKKC
modifications: N-term isovaleric acid; 4 Dpa; 8 (D)Lys; 9 bhPhe; 10 Lys(2Peg11′_Ahx_Palm); 11 (D)Lys; C-term NH2
B11: Compd. ID 203 (peptide)
peptide: DTHFPCIKXKKC
modifications: not fully specified; N-term isovaleric acid; 4 MePhe; 8 (D)Lys; 9 bhPhe; 10 Lys(Ahx_Palm); 11 (D)Lys; C-term NH2
B12: Compd. ID 24 (peptide)
peptide: DTHXPCIKXKXC
modifications: N-term isovaleric acid; 4 Dpa; 8 (D)Lys; 9 bhPhe; 10 Lys(Ahx-Palm); 11 Cit; C-term NH2
B13: Compd. ID 20 (peptide)
peptide: DTHXPCIKXKKC
modifications: N-term isovaleric acid; 4 Dpa; 8 (D)Lys; 9 bhPhe; 10 Lys(Ahx-Palm); 11 (D)Lys; C-term NH2
B14: Compd. ID 21 (peptide)
peptide: DTHXPCIKXKXC
modifications: not fully specified; N-term isovaleric acid; 4 Dpa; 8 (D)Lys; 9 bhPhe; 10 Lys(Ahx-Palm); 11 Spiral_Pip; C-term NH2
B15: Compd. ID 33 (peptide)
peptide: DTHXPCIKXKPRSKC
modifications: N-term isovaleric acid; 4 Dpa; 8 (D)Lys; 9 bhPhe; 10 Lys(2Peg11′_Palm); C-term NH2
B16: Compd. ID 39 (peptide)
peptide: DTHXPCIKXKKC
modifications: N-term isovaleric acid; 4 Dpa; 8 (D)Lys; 9 bhPhe; 10 Lys(Ahx_Ahx_Palm); 11 (D)Lys; C-term NH2
B17: Compd. ID 23 (peptide)
peptide: DTHXPCIKXKRC
modifications: N-term isovaleric acid; 4 Dpa; 8 (D)Lys; 9 bhPhe; 10 Lys(Ahx-Palm); 11 Arg(Dimethyl); C-term NH2
B18: Compd. ID 6 (peptide)
peptide: DTHXPCIKXKC
modifications: N-term isovaleric acid; 4 Dpa; 8 Lys[isoGlu-Palm]; 9 bhPhe; 10 (D)Lys; C-term NH2
B19: Compd. ID 22 (peptide)
peptide: DTHXPCIKXKRC
modifications: N-term isovaleric acid; 4 Dpa; 8 (D)Lys; 9 bhPhe; 10 Lys(Ahx-Palm); 11 Arg(Nitro); C-term NH2
B20: Compd. ID 25 (peptide)
peptide: DTHXPCIKXKPC
modifications: N-term isovaleric acid; 4 Dpa; 8 (D)Lys; 9 bhPhe; 10 Lys(Ahx-Palm); 11 Pro(4-Amino); C-term NH2
B21: Compd. ID 45 (peptide)
peptide: DTHXPCIKXKKC
modifications: N-term isovaleric acid; 4 Dpa; 8 (D)Lys; 9 bhPhe; 10 Lys(2Peg11′_KKKGS_Palm); 11 (D)Lys; C-term NH2
B22: Compd. ID 36 (peptide)
peptide: DTHXPCIKXKKC
modifications: N-term isovaleric acid; 4 Dpa; 8 (D)Lys; 9 bhPhe; 10 Lys(2Peg11′_Sarc_Palm); 11 (D)Lys; C-term NH2
B23: Compd. ID 44 (peptide)
peptide: DTHXPCIKXKKC
modifications: N-term isovaleric acid; 4 Dpa; 8 (D)Lys; 9 bhPhe; 10 Lys(2Peg11′_KKK_Palm); 11 (D)Lys; C-term NH2

target: T1, human ferroportin (SLC40A1) fused in frame with GFP (human); experiment: cell-based or functional assay

Binder	FPN EC50	IC50: FPN internalisation
B1	1700 nM	
Isovaleryl-DTHFPCIK(Ac)FK([PEG12-Palmitoyl])PK(Ac)SK(Ac)[Sar]CK-NH2 (disulfide 6-16 (inferred)) [Compd. ID 214]	7.19 nM	
B2	18.5 nM	
Isovaleryl-DTH[Dip]PCI[β3hF]K([Ahx-Palmitoyl])[dK]C-NH2 (disulfide 6-11 (inferred)) [Compd. ID 206]	10.8 nM	
Isovaleryl-DTH[Dip]PCI[βAla][β3hF][dK]C-NH2 (disulfide 6-11 (inferred)) [Seq. No. 323]		10.6 nM
Isovaleryl-DTHFPCIK([γGlu-Palmitoyl])FEPR [Compd. ID 219]	12.6 nM	
Isovaleryl-DTH[Dip]PCI[Arg(Nitro)][β3hF]K([Ahx-Palmitoyl])[dK]C-NH2 (disulfide 6-12 (inferred)) [Compd. ID 28]	27.1 nM	
B3	18.5 nM	
Isovaleryl-DTH[Dip]PCIK([Ahx-Palmitoyl])[2Pal]C-NH2 (disulfide 6-10 (inferred)) [Seq. No. 320]		9.72 nM
Isovaleryl-DTH[Dip][Npc]CI[dK][β3hF]KC[dK]-NH2 (disulfide 6-11 (inferred); not fully specified (residue 10)) [Compd. ID 15]	> 3000 nM	
Isovaleryl-DTH[Dip][Npc]CIK([γGlu-Palmitoyl])[β3hF]C[dK]-NH2 (disulfide 6-10 (inferred)) [Compd. ID 19]	4.56 nM	
B4		13.7 nM
DTHFPCIKXKKC (N-term isovaleric acid; 8 (D)Lys; 9 bhPhe; 10 Lys(Palm); C-term NH2) [Compd. ID 205]	4.23 nM	
Isovaleryl-DTH[Dip][Npc]CI[dK][β3hF]K([Ahx-Palmitoyl])[dK]C-NH2 (disulfide 6-12 (inferred)) [Compd. ID 4]	6.35 nM	
B5	0.75 nM	
B6	33 nM	
DTHXPCIKXKRC (N-term isovaleric acid; 4 Dpa; 8 (D)Lys; 9 bhPhe; 10 Lys(Ahx-Palm); C-term NH2) [Compd. ID 2]	11.8 nM	
B7	> 3000 nM	
Isovaleryl-DTH[Dip]PCI[dK][β3hF]K([PEG12-Palmitoyl])PRSK[Sarc]C-NH2 (disulfide 6-16 (inferred)) [Compd. ID 34]	23.6 nM	
B8	32.2 nM	
B9	283 nM	
Isovaleryl-DTHFPC[NMeL]K([γGlu-Palmitoyl])FEPRSKGCK-NH2 (disulfide 6-16 (inferred)) [Compd. ID 244]	9.59 nM	
DTHXPCIKXKKC (N-term isovaleric acid; 4 Dpa; 8 (D)Lys; 9 bhPhe; 10 Lys[Palm]; C-term NH2) [Compd. ID 16]	5.85 nM	
Isovaleryl-DTH[Dip]PCI[Pro(4Amino)][β3hF]K([Ahx-Palmitoyl])[dK]C-NH2 (disulfide 6-12 (inferred)) [Compd. ID 31]	18 nM	
Isovaleryl-DTH[Dip]PCI[Cit][β3hF]K([Ahx-Palmitoyl])[dK]C-NH2 (disulfide 6-12 (inferred)) [Compd. ID 30]	26.6 nM	

Binder	FPN EC50	IC50: FPN internalisation
Isovaleryl-DTHFPCLK([γGlu-Palmitoyl])FEPRSKGCK-NH2 (disulfide 6-16 (inferred)) [Compd. ID 216]	16.6 nM	
Isovaleryl-DTH[Dip]PC[NMeL][dK][β3hF]K([Ahx-Palmitoyl])[dK]C-NH2 (disulfide 6-12 (inferred); not fully specified) [Compd. ID 201]	12.5 nM	
B10	19.6 nM	
Isovaleryl-DTH[Dip][Npc]CI[dK][β3hF]K([γGlu-Palmitoyl])C[dK]-NH2 (disulfide 6-11 (inferred)) [Compd. ID 13]	16.1 nM	
Isovaleryl-DTH[Dip]PCI[dK][β3hF]K([PEG12-Palmitoyl])P[dK]S[dK][Sarc]C[dK]-NH2 (disulfide 6-16 (inferred)) [Compd. ID 35]	23.1 nM	
Isovaleryl-DTHFPCIK([γGlu-Palmitoyl])FEPRSKGC (disulfide 6-16 (inferred)) [Compd. ID 218]	15.6 nM	
B11	28 nM	
B12	45.8 nM	
B13	6.66 nM	
B14	37.5 nM	
DTHXPCIKXKC (N-term isovaleric acid; 4 Dpa; 8 Lys(Ahx_Palm); 9 2Pal; 10 (D)Lys; C-term NH2) [Seq. No. 321]		21.7 nM
B15	25.4 nM	
B16	19.3 nM	
Isovaleryl-DTH[Dip]PCI[Spiral_Pip][β3hF]K([Ahx-Palmitoyl])[dK]C-NH2 (disulfide 6-12 (inferred); reading uncertain) [Compd. ID 27]	26.3 nM	
B17	41.6 nM	
Isovaleryl-DTH[Dip][Npc]CI[dK][β3hF]K([Ahx-Palmitoyl])C[dK]-NH2 (disulfide 6-11 (inferred)) [Compd. ID 12]	11.5 nM	
B18	6.16 nM	
B19	30.1 nM	
B20	25.7 nM	
Isovaleryl-DTH[Dip]PCI[Arg(Dimethyl)][β3hF]K([Ahx-Palmitoyl])[dK]C-NH2 (disulfide 6-12 (inferred)) [Compd. ID 29]	10.6 nM	
DTHXPCIKXKKC (N-term isovaleric acid; 4 Dpa; 8 (D)Lys; 9 bhPhe; 10 Lys(Ahx-Palm); C-term NH2) [Compd. ID 17]	8.29 nM	
B21	24.5 nM	
B22	10.9 nM	
B23	37.9 nM	
Isovaleryl-DTH[Dip]PCI[β3hF]K([Ahx-Palmitoyl])[dK]C-NH2 (disulfide 6-11 (inferred)) [Compd. ID 18]	10.8 nM	
